Laboratory results from publication PMC1807977 (Nucleic Acids Research, 2007).

Tests used:
[1] = target: T1, CBP-tagged Tfb2 (purified yeast Tfb2 protein) (S. cerevisiae, UniProt Q02939 1-513); test: co-IP
T1 sequence (looked up): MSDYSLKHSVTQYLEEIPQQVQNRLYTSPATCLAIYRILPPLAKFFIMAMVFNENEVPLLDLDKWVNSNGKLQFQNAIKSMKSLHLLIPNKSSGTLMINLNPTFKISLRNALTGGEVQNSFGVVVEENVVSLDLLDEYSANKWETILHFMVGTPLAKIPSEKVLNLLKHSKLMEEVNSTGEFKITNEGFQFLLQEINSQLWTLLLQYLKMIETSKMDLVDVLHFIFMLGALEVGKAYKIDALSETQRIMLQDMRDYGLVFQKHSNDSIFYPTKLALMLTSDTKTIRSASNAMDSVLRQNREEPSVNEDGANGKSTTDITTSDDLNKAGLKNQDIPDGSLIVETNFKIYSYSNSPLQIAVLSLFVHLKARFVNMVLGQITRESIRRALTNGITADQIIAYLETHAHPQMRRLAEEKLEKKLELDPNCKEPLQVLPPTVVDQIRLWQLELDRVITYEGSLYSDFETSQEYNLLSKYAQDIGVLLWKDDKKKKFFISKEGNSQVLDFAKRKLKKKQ

[2] = target: T1, CBP-tagged Tfb2 (purified yeast Tfb2 …); test: pull-down
[3] = target: T2, Tfb5 (Saccharomyces cerevisiae, UniProt Q3E7C1 1-72); test: EMSA
T2 sequence: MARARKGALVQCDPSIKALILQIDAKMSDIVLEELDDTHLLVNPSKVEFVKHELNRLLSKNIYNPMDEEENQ

B1: His6-Tfb5 (purified yeast Tfb5 protein) (natural protein, S. cerevisiae, UniProt Q3E7C1 1-72, looked up)
chain: T2 sequence
- binding result [1]: binds

B2: His6-Tfb5ΔN7 (domain or fragment, S. cerevisiae, UniProt Q3E7C1 8-72, looked up)
chain: ALVQCDPSIKALILQIDAKMSDIVLEELDDTHLLVNPSKVEFVKHELNRLLSKNIYNPMDEEENQ
- binding result [2]: binds

B3: His6-Tfb5ΔC14 (domain or fragment, S. cerevisiae, UniProt Q3E7C1 1-58, looked up)
chain: MARARKGALVQCDPSIKALILQIDAKMSDIVLEELDDTHLLVNPSKVEFVKHELNRLL
- binding result [2]: binds

B4: 79mer ss (ssDNA)
DNA: GGAATTCCGGAATTACAGGCTCTAACACCGAATTACAGGCTCTAACACCGTCTCATCTTCGCTCGTCCACTTTTTTTCG
- binding result [3]: no binding
